Measured values from US20240002497A1 (Merck Sharp & Dohme, published 2024).

Tests used:
[1] = target: T1, huNav1.7α + β1-β2-β3 (human, UniProt Q15858 1-1988; A5A6L6 19-218; O60939 30-215; Q2KI11 23-215); assay: binding FACS, CHO FlpIn
T1 construct: also called huNav1.7-beta1-beta2-beta3; huNav1.7-β1-β2-β3
Method in brief: (§1)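 Flow cytometry read-out of anti-Flag signal on propidium iodide-negative cells measured ISVD binding. Purified FLAG3-tagged ISVD, diluted in PBS with 10% FBS and NaN₃, was applied to the cells for 30 minutes at 4° C.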

[2] = target: T2, rhNav1.7α + β1-β2-β3 (rhesus monkey); assay: binding FACS, CHO FlpIn
T2 construct: also called rhNav1.7-beta1-beta2-beta3; rhNav1.7-β1-β2-β3
Method in brief: as §1

[3] = target: T3, muNav1.7α (murine, UniProt Q62205 1-1984); assay: binding FACS, HEK JmpIn
T3 construct: HEK JmpIn cells; also called murine Nav1.7α
Experimental: Binding of the ISVDs to cell-expressed Nav1.7α was detected via murine anti-Flag (Sigma, catalog #F1804). Briefly, cells were resuspended in FACS buffer (PBS, 10% FBS, NaN₃) and transferred to a 96-well V-bottom plate at 1×10^5 cells/well. Purified FLAG3-tagged ISVD was diluted in FACS buffer and added to the cells for 30 minutes at 4° C. […] Prior to the read-out, the samples were resuspended in 1 μg/mL propidium iodide (Sigma, catalog #P4170) to exclude dead cells. Between each step, the cells were centrifuged for 5 minutes at 200 grams and washed with 100 μL/well FACS buffer.

Row | Binder | Bmax [1] [%] | EC50 [1] [nM] | EC50 [2] [nM] | EC50 [3] [nM] | Bmax [2] [%] | Bmax [3] [%]
1 | F010301936 (VHH, also called F0103464B09(L11V, R81Q, K83R, V89L)) VHH: EVQLVESGGGVVQPGGSLRLSCATTSRAFIRDVFTGWYRRVPGKERELVARIYNGGNTNYADFAKGRFSISRDNAKKMVTLQMSNLRPEDTGLYYCLFSGTINTGREYRSGDYWGQGTLVTVSS | 95 | 4.4 | 26 | 4.8 |  | 
2 | F010301937 (VHH, also called F0103464B09(L11V, S82aN, K83R, V89L)) VHH: EVQLVESGGGVVQPGGSLRLSCATTSRAFIRDVFTGWYRRVPGKERELVARIYNGGNTNYADFAKGRFSISRDNAKKMVTLRMNNLRPEDTGLYYCLFSGTINTGREYRSGDYWGQGTLVTVSS | 95 | 4.3 | 20 | 4.8 |  | 
3 | F010301938 (VHH, also called F0103464B09(L11V, N82bS, K83R, V89L)) VHH: EVQLVESGGGVVQPGGSLRLSCATTSRAFIRDVFTGWYRRVPGKERELVARIYNGGNTNYADFAKGRFSISRDNAKKMVTLRMSSLRPEDTGLYYCLFSGTINTGREYRSGDYWGQGTLVTVSS | 97 | 4.8 | 20 | 4.7 |  | 
4 | F010302339 (VHH) VHH: EVQLVESGGGVVQPGGSLRLSCAASHRAFIRDVFTGWYRRAPGKQRELVARIYEGGNTQYADSAKGRFTISRDNAKKTVYLQMNSLRPEDTALYYCLFSGTISTGREYRSGDYWGQGTLVTVSS | 100 | 4.3 | 6.8 | 8.7 | 100 | 61
5 | F010302347 (VHH) VHH: EVQLVESGGGVVQPGGSLRLSCAASHRAFIRDVFTGWYRQAPGKQRELVARIYEGGNTQYADSAKGRFTISRDNAKKTVYLQMNSLRPEDTALYYCLFSGTISTGREYRSGDYWGQGTLVTVSS | 100 | 4.6 | 9.6 | 14 | 100 | 48

More lines, in order of falling EC50 [1], values ahead:

Row | Bmax [1] [%] | EC50 [1] [nM] | EC50 [2] [nM] | EC50 [3] [nM] | Bmax [2] [%] | Bmax [3] [%] | Binder
6 | 96 | 5.1 | 22 | 6.3 |  |  | F010301939 (VHH, also called F0103464B09(L11V, K83R, G88A, V89L)) VHH: EVQLVESGGGVVQPGGSLRLSCATTSRAFIRDVFTGWYRRVPGKERELVARIYNGGNTNYADFAKGRFSISRDNAKKMVTLRMSNLRPEDTALYYCLFSGTINTGREYRSGDYWGQGTLVTVSS
7 | 100 | 3.9 | 6.8 |  | 100 | 74 | F010302337 (VHH) VHH: EVQLVESGGGVVQPGGSLRLSCAASHRQFIRDVFTGWYRRAPGKQRELVARIYEGGNTQYADSAKGRFTISRDNAKKTVYLQMNSLRPEDTALYYCLFSGTISTGREYRSGDYWGQGTLVTVSS
8 | 100 | 3.5 | 6.8 | 21 | 97 | 30 | F010302355 (VHH) VHH: EVQLVESGGGVVQPGGSLRLSCAASHRAFIRDVFTGWYRRAPGKQRELVARIYEGGNTQYADSVKGRFTISRDNAKKTVYLQMNSLRPEDTALYYCLFSGTISTGREYRSGDYWGQGTLVTVSS
